# T1: His-tagged ECD of mouse 4-1BB (mouse, UniProt P20334 24-187)
# T1 construct: also called murine 4-1BB; mu4-1BB; not shown: His tag
# T1 sequence: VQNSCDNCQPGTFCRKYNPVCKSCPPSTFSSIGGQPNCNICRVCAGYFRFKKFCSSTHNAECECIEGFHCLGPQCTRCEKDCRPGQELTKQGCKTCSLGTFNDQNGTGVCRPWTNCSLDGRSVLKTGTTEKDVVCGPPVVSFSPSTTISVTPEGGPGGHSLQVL
# T2: His-tagged ECD of cynomolgus monkey 4-1BB (cynomolgus monkey, UniProt Q07011 24-186 (human entry))
# T2 construct: also called cynomolgus 4-1BB; cyno 4-1BB; not shown: His tag
# T2 chain: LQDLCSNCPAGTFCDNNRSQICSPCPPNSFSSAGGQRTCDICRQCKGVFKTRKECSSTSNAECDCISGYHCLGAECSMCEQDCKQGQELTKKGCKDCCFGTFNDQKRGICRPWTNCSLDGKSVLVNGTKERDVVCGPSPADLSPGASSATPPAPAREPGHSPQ
# Key:
# [1] = target: T1, His-tagged ECD of mouse 4-1BB; experiment: SPR (Biacore), captured antibody, His-tagged ECD analyte
# Procedure: (§1) The binding kinetics of the 4-1BB antibodies for target proteins were determined by using a Biacore T200 surface plasmon resonance system (BlAcore, GE Healthcare, Piscataway, N.J.). Polyclonal goat anti-human Fc antibody (Pierce 31125) was first immobilized to the biosensor surface using standard amine coupling reagents (N-ethyl-N′-dimethylamino-propylcarbodiimide, EDC; N-hydroxysuccinimide, NHS; and ethanolamine HCl, pH 8.5), followed by the capture of antibodies on parallel surfaces at a low flow rate of 10 μL/min. No capture of the antibody was made on the reference surface to serve as a negative control. Antigen (His-tagged ECD of 4-1BB derived from human, cynomolgus monkey, or mouse) was injected to all flow cells at a flow rate of 80 μL/min for three minutes to monitor association followed by a 10-20-minute flow of HBS-EP+running buffer (10 mM HEPES, 150 mM sodium chloride, 3mM EDTA, 0.05% Tween-20, pH 7.5) to monitor the dissociation phase. […] The surface was regenerated by two consecutive injections of 10 mM glycine (pH 1.5) at a flow rate of 60 μL/min at the end of each cycle. Binding data were fit to the 1:1 Langmuir model to extract binding constants from the BlAevaluate software. Double referencing was applied in each analysis to eliminate background responses from the reference surface and buffer only control.
# [2] = target: T3, His-tagged ECD of human 4-1BB (human, UniProt Q07011 24-184); experiment: as above
# T3 construct: also called hu4-1BB; 4-1BB ECD; not shown: His tag
# Procedure: as §1
# [3] = target: T2, His-tagged ECD of cynomolgus monkey …; experiment: as above
# Procedure: as §1
# [4] = target: T3, His-tagged ECD of human 4-1BB; experiment: SPR (Biacore)
Molecule,Kd [1] [nM],koff [1] [s⁻¹],kon [1] [M⁻¹ s⁻¹],Kd [2] [nM],koff [2] [s⁻¹],kon [2] [M⁻¹ s⁻¹],Kd [3] [nM],koff [3] [s⁻¹],kon [3] [M⁻¹ s⁻¹],binding result [4],binding result [1]
literature anti-4-1BB antibody 3H3,0.98,0.0057,5.8e+06,,,,,,,,
literature anti-4-1BB antibody 1D8,3.9,0.008,2.1e+06,,,,,,,,
"MOR-7480.1-hIgG2 (antibody, V domains shown) VH: EVQLVQSGAEVKKPGESLRISCKGSGYSFSTYWISWVRQMPGKGLEWMGKIYPGDSYTNYSPSFQGQVTISADKSISTAYLQWSSLKASDTAMYYCARGYGIFDYWGQGTLVTVSS VL: SYELTQPPSVSVSPGQTASITCSGDNIGDQYAHWYQQKPGQSPVLVIYQDKNRPSGIPERFSGSNSGNTATLTISGTQAMDEADYYCATYTGFGSLAVFGGGTKLTVLG",,,,,,,,,,,no binding (tested: antigen between 100 nM and 3.7 nM)
"hu106-4-hIgG4 (antibody, V domains shown, Human IgG4 constant region with the S228P mutation; also called hu106.1x.3x) VH: EVQLVQSGAEVKKPGSSVKVSCKASGYTFTSYYIYWVRQAPGQGLEWIGNIWPGNGGTFYGEKFMGRATFTADTSTSTAYMELSSLRSEDTAVYYCARRPDYSGDDYFDYWGQGTLVTVSS VL: SVELTQPPSVSVSPGQTARITCKLNSGNIGSYYVHWYQQKPGQAPVTMIYRDDKRPDGIPERFSGSSDSSSNSAFLTISGVQAEDEADYYCHSYDSTITPVFGGGTKLTVL",9.3,0.015,1.6e+06,200,0.042,210000,180,0.052,280000,,
"hu106-7-hIgG4 (antibody, V domains shown, Human IgG4 constant region with the S228P mutation; also called hu106.1y.3x) VH: EVQLVESGGGLVQPGGSLRLSCAASGYTFTSYYIYWVRQAPGKGLEWIGNIWPGNGGTFYGEKFMGRATFSADTSKNTAYLQMNSLRAEDTAVYYCARRPDYSGDDYFDYWGQGTLVTVSS VL: SVELTQPPSVSVSPGQTARITCKLNSGNIGSYYVHWYQQKPGQAPVTMIYRDDKRPDGIPERFSGSSDSSSNSAFLTISGVQAEDEADYYCHSYDSTITPVFGGGTKLTVL",17,0.037,2.2e+06,420,0.047,110000,,,,,
"Mouse TABBY9 with mouse IgG1 constant (antibody, V domains shown, Mouse IgG1; also called TABBY9-mIgG1) VH: QVQLKQSGPGLVQPSQSLSITCTVSGFSLTSYGVHWVRQSPGKGLEWLGMIWSGGSTDYNAAFISRLSISKDNSKSQVFFKMNSLQADDTALYFCASYGGFYETMDYWGQGTSVTVSS VL: DIQMTQTTSSLSASLGDRITISCRASQDISNYLNWYQRKPDGTVKLLIYYTSRLHSGVPSRFSGSGSGRDYSLTISNLEQEDIATYFCQQGNTLPYTFGGGTKLEIK",,,,,,,,,,binds,
"20H4.9-hIgG4 (antibody, V domains shown) VH: QVQLQQWGAGLLKPSETLSLTCAVYGGSFSGYYWSWIRQSPEKGLEWIGEINHGGYVTYNPSLESRVTISVDTSKNQFSLKLSSVTAADTAVYYCARDYGPGNYDWYFDLWGRGTLVTVSS VL: EIVLTQSPATLSLSPGERATLSCRASQSVSSYLAWYQQKPGQAPRLLIYDASNRATGIPARFSGSGSGTDFTLTISSLEPEDFAVYYCQQRSNWPPALTFGGGTKVEIKR",,,,4.9,0.0021,420000,,,,,no binding (tested: antigen between 100 nM and 3.7 nM)

# The next lines start with results.
Kd [1] [nM],koff [1] [s⁻¹],kon [1] [M⁻¹ s⁻¹],Kd [2] [nM],koff [2] [s⁻¹],kon [2] [M⁻¹ s⁻¹],Kd [3] [nM],koff [3] [s⁻¹],kon [3] [M⁻¹ s⁻¹],binding result [4],Molecule,binding result [1]
4,,330000,0.58,8e-05,140000,0.22,5.2e-05,,,"hu107-1-hIgG4 (antibody, V domains shown, Human IgG4 constant region with the S228P mutation; also called hu107.1x.1x) VH: EVQLVQSGAEVKKPGSSVKVSCKASDYTFNDYWVSWVRQAPGQGLEWIGEIYPNSGATNFNGKFRGRATLTVDNSASTAYMELSSLRSEDTAVYYCTREYTRDWFAYWGQGTLVTVSS VL: DVVLTQSPLSLPVTLGQPASISCRSSQSLLDSDGNTYLYWFQQRPGQSPRRLIYLVSNLGSGVPDRFSGSGSGTDFTLKISRVEAEDVGVYYCMQPTHAPYTFGQGTKLEIK",
5.1,0.0016,320000,0.81,0.00011,130000,0.29,7e-05,240000,,"hu107-3-hIgG4 (antibody, V domains shown, Human IgG4 constant region with the S228P mutation; also called hu107.1x.1y) VH: EVQLVQSGAEVKKPGSSVKVSCKASDYTFNDYWVSWVRQAPGQGLEWIGEIYPNSGATNFNGKFRGRATLTVDNSASTAYMELSSLRSEDTAVYYCTREYTRDWFAYWGQGTLVTVSS VL: DVQLTQSPSSLSASVGDRVTITCRSSQSLLDSDGNTYLYWFQQKPGKAPKRLIYLVSNLGSGVPSRFSGSGSGTDFTLTISSLQPEDFATYYCMQPTHAPYTFGQGTKVEIK",
,,,,,,0.13,4e-05,310000,,"hu107-1-hIgG1 (antibody, V domains shown, 312 is written here; Human IgG1 constant region bearing L234A and L235A; also called hu107.1x.1x) VH: EVQLVQSGAEVKKPGSSVKVSCKASDYTFNDYWVSWVRQAPGQGLEWIGEIYPNSGATNFNGKFRGRATLTVDNSASTAYMELSSLRSEDTAVYYCTREYTRDWFAYWGQGTLVTVSS VL: DVVLTQSPLSLPVTLGQPASISCRSSQSLLDSDGNTYLYWFQQRPGQSPRRLIYLVSNLGSGVPDRFSGSGSGTDFTLKISRVEAEDVGVYYCMQPTHAPYTFGQGTKLEIKR",
,,,,,,170,0.1,620000,,"hu106-1-hIgG1 (antibody, V domains shown, 310 is written here; Human IgG1 constant region bearing L234A and L235A; also called hu106.1x.1x) VH: EVQLVQSGAEVKKPGSSVKVSCKASGYTFTSYYIYWVRQAPGQGLEWIGNIWPGNGGTFYGEKFMGRATFTADTSTSTAYMELSSLRSEDTAVYYCARRPDYSGDDYFDYWGQGTLVTVSS VL: NVMLTQPHSVSESPGKTVTISCKLNSGNIGSYYVHWYQQRPGSSPTTMIYRDDKRPDGVPDRFSGSIDSSSNSASLTISGLKTEDEADYYCHSYDSTITPVFGGGTKLTVLG",

# Source: US20190194329A1 (AbbVie / Abbott, published 2019)
